Positions count from the first letter of the chain named. Like-named read-outs stand apart in the source and are kept apart here.
T1: Movement Protein of ToBRFV (Tomato Brown Rugose Fruit Virus …, UniProt A0A0S2SZW1 1-266)
T1 sequence: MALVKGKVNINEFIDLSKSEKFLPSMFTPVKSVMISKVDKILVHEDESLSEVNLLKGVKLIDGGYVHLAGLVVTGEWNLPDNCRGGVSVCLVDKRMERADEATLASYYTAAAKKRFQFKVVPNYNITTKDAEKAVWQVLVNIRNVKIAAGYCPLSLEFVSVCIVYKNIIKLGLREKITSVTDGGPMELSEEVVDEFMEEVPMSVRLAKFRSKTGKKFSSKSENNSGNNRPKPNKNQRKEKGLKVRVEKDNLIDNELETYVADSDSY

B1: TM-2-2 variant pJL 480Q (848 R, 857 Q) (receptor)
chain: MAEILLTSVINKSVEIAGNLLIQEGKRLYWLKEDIDWLQREMRHIRSYVDNAKAKEAGGDSRVKNLLKDIQELAGDVEDLLDDFLPKIQQSNKFNYCLKRSSFADEFAMEIEKIKRRVVDIDRIRKTYNIIDTDNNNDDCVLLDRRRLFLHADETEIIGLDDDFNMLQAKLLNQDLHYGVVSIVGMPGLGKTTLAKKLYRLIRDQFECSGLVYVSQQPRASEILLDIAKQIGLTEQKMKENLEDNLRSLLKIKRYVILLDDIWDVEIWDDLKLVLPECDSKVGSRMIITSRNSNVGRYIGGESSLHALQPLESEKSFELFTKKIFNFDDNNSWANASPDLVNIGRNIVGRCGGIPLAIVVTAGMLRARERTEHAWNRVLESMGHKVQDGCAKVLALSYNDLPIASRPCFLYFGLYPEDHEIRAFDLINMWIAEKFIVVNSGNRREAEDLAEDVLNDLVSRNLIQLAKRTYNGRISSCRIHDLLHSLCVDLAKESNFFHTAHDAFGDPGNVARLRRITFYSDNVMIEFFRSNPKLEKLRVLFCFAKDPSIFSHMAYFDFKLLHTLVVVMSQSFQAYVTIPSKFGNMTCLRYLRLEGNICGKLPNSIVKLTRLETIDIDRRSLIQPPSGVWESKHLRHLCYRDYGQACNSCFSISSFYPNIYSLHPNNLQTLMWIPDKFFEPRLLHRLINLRKLGILGVSNSTVKMLSIFSPVLKALEVLKLSFSSDPSEQIKLSSYPHIAKLHLNVNRTMALNSQSFPPNLIKLTLAYFSVDRYILAVLKTFPKLRKLKMFICKYNEEKMDLSGEANGYSFPQLEVLHIHSPNGLSEVTCTDDVSMPKLKKLLLTGFHRRISLSERLQKLSK
B2: TM-2-2 variant L11_19 (767 N) (receptor)
chain: B1 chain with Y767N, R848C, Q857K
B3: TM-2-2 variant L11_1 (767 R) (receptor)
chain: B1 chain with Y767R, R848C, Q857K
B4: TM-2-2 variant pJL 480T (848 R, 857 T) (receptor)
chain: B1 chain with Q857T
B5: TM-2-2 variant L12_11 (769 G) (receptor)
chain: B1 chain with S769G, R848C, Q857K
B6: TM-2-2 variant L12_4 (769 F) (receptor)
chain: B1 chain with S769F, R848C, Q857K
B7: TM-2-2 variant pJL 476_R (822 R, 848 R) (receptor)
chain: B1 chain with N822R, Q857K
B8: TM-2-2 variant L11_10 (767 I) (receptor)
chain: B1 chain with Y767I, R848C, Q857K
B9: TM-2-2 variant L12_12 (769 R) (receptor)
chain: B1 chain with S769R, R848C, Q857K
B10: TM-2-2 variant L11_15 (767 L) (receptor)
chain: B1 chain with Y767L, R848C, Q857K
B11: TM-2-2 variant L11_11 (767 C) (receptor)
chain: B1 chain with Y767C, R848C, Q857K
B12: TM-2-2 variant L11_16 (767 G) (receptor)
chain: B1 chain with Y767G, R848C, Q857K
B13: TM-2-2 variant pJL 480R (848 R, 857 R) (receptor)
chain: B1 chain with Q857R
B14: TM-2-2 variant pJL 480I (848 R, 857 I) (receptor)
chain: B1 chain with Q857I
B15: TM-2-2 variant L11_20 (767 V) (receptor)
chain: B1 chain with Y767V, R848C, Q857K
B16: TM-2-2 variant pJL 480E (848 R, 857 E) (receptor)
chain: B1 chain with Q857E

What was measured:
Assay in all cases: cell-based or functional assay
[1] = molecular target: T1, Movement Protein of ToBRFV
[2] = molecular target: T1, Movement Protein of ToBRFV; remark: listed apart in the source
[3] = molecular target: T1, Movement Protein of ToBRFV; remark: listed apart in the source
[4] = molecular target: T1, Movement Protein of ToBRFV; remark: listed apart in the source

| Binder | HR to MP Rugose [1] [HR scale 0-4] | HR to MP Rugose [2] [HR scale 0-4] | further results |
| --- | --- | --- | --- |
| B1 | 3 | – | – |
| B2 | – | 0 | – |
| B3 | – | < 1 | – |
| B4 | < 1 | – | – |
| B5 | – | – | HR to MP Rugose [3]: < 1 HR scale 0-4 |
| B6 | – | – | HR to MP Rugose [3]: < 1 HR scale 0-4 |
| B7 | – | – | HR to MP Rugose [4]: 0 HR scale 0-4 |
| B8 | – | 0 | – |
| B9 | – | – | HR to MP Rugose [3]: < 1 HR scale 0-4 |
| B10 | – | 0 | – |
| B11 | – | 0 | – |
| B12 | – | 0 | – |
| B13 | < 1 | – | – |
| B14 | < 1 | – | – |
| B15 | – | 0 | – |
| B16 | < 1 | – | – |

Source: US20240049668A1 (VILMORIN AND CIE, published 2024)
